According to publication PMC8027947, “Nucleoside Metabolism Is Induced in Common Bean During Early Seedling Development” (Frontiers in Plant Science, 2021):

Legend:
[1] = substrate: O=c1[nH]c(=O)c2ncn([C@@H]3O[C@H](CO)[C@@H](O)[C@H]3O)c2[nH]1; test: HPLC of nucleoside hydrolysis, Michaelis-Menten; type: biochemical, Phaseolus vulgaris; conditions: 50 mM Tris-HCl pH 7.5, 1 mM DTT, 40 °C, apparent Km
Description: (§1) HPLC of nucleoside hydrolysis, Michaelis-Menten on PvNSH2

[2] = substrate: OC[C@H]1O[C@@H](n2cnc3c(O)ncnc32)[C@H](O)[C@@H]1O; test: HPLC of nucleoside hydrolysis, Michaelis-Menten; type: biochemical, Phaseolus vulgaris; conditions: 50 mM Tris-HCl pH 7.5, 1 mM DTT, 40 °C, apparent Km
Description: as §1

B1: PvNSH2 (Phaseolus vulgaris) (protein)
chain: MAADTEPKKIIIDTDPGIDDAMAIFVALQSPEIEVIGLTTIYGNVYTTLATRNALHLLEVAGRTDIPVAEGTHLTLTKGTKLRIADFVHGADGLGNQNFPPPKGKPIEESAASFLVRQAKLNPGKVTVVALGPLTNIALAIELDPEFVKNIGQIVILGGAFAVNGNVNPAAEANIFGDPDAADVVFTSGADILALGINVTHQVILTSSDREILASSNGKFAQYLHKILDVYFSYHQESYNTKGVYLHDPTVVLAAVDPSLVTCIEGIVRVQTSGITRGLTLLYNKQKRFGEIHEWSNKPTVKVAVTVDAPRVMKLVMDRLLDS
notes: no N. benthamiana NSH1 detected by MS; locus assigned by print order
In the case of B1, the Km [1] is reported as 120 ± 20 µM, the kcat [1] is reported as 13.2 ± 0.26 s⁻¹ and the kcat/Km [1] is reported as 116000 ± 15200 M⁻¹ s⁻¹. It also gave a Km [2] of 210 ± 20 µM, a kcat [2] of 2.91 ± 0.14 s⁻¹ and a kcat/Km [2] of 13700 ± 640 M⁻¹ s⁻¹.
